Measured values: patent publication US20240287196A1 (published 2024)
Changes are numbered by the printed parent chain. Where two headings read alike, the source gives them in different places.

B1: G04 (antibody, V domains shown)
VH: QVQLVQSGAEVKKPGSSVKVSCKASGGTFSSYAISWVRQAPGQGLEWMGGIIPIFGTASYAQKFQGRVTITADESTSTAYMELSSLRSEDTAVYYCARTPYYDSSGYLDVWGQGTMVTVSS
VL: DIQMTQSPSSLSASVGDRVTITCQASQDISNYLNWYQQKPGKAPKLLIYDASNLATGVPSRFSGSGSGTDFTFTISSLQPEDIATYYCQQSLDLPPTFGGGTKVEIK
notes: also called antibody G04
B2: G05 (antibody, human IgG1, kappa, V domains shown)
VH: B1 VH with S31G, Y32Q, I54S, S59R
VL: DIQMTQSPSSLSASVGDRVTITCQASHDIDNYLNWYQQKPGKAPKLLIYYASNLKTGVPSRFSGSGSGTDFTFTISSLQPEDIATYYCQQSRASPPTFGGGTKVEIKR
notes: also called mAb G05; antibody G05
B3: K01 (antibody, V domains shown)
VH: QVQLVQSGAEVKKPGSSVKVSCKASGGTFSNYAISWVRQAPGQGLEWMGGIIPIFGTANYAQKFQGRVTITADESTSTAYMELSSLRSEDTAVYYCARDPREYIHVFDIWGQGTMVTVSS
VL: DIQMTQSPSSLSASVGDRVTITCRASQSISSYLNWYQQKPGKAPKLLIYGASSLQSGVPSRFSGSGSGTDFTLTISSLQPEDFATYYCQQAYSFPWTFGGGIKVEIK
notes: also called antibody K01
B4: K02 (antibody, V domains shown)
VH: QVQLVQSGAEVKKPGSSVKVSCKASGGTFSSSAIGWVRQAPGQGLEWMGGIWPIFGTALYAQKFQGRVTITADESTSTAYMELSSLRSEDTAVYYCARDPREYIHVFDIWGQGTMVTVSS
VL: B3 VL
notes: also called mAb K02; antibody K02
B5: J02 (antibody, V domains shown)
VH: EVQLLESGGGLVQPGGSLRLSCAASGFTFSVYAMSWVRQAPGKGLEWVSAISGSGDSTVYADSVKGRFTISRDNSKNTLYLQMNSLRAEDTAVYYCAKPSYQPIYWGQGTLVTVSS
VL: B3 VL with L11V, S28G, Y32W, N34A, G50A, Y92A, F94Y, W96L, I102T
notes: also called mAb J02; antibody J02
B6: C03 (antibody, human IgG1, kappa, V domains shown)
VH: QLQLQESGPGLVKPSETLSLTCTVSGGSISSSAYYWAWIRQPPGKGLEWIGSIYLSGSTTYNPSLKSRVTISVDTSKNQFSLKLSSVTAADTAVYYCARDGRYQSRSPDYYYGMDVWGQGTTVTVSS
VL: EIVLTQSPGTLSLSPGERATLSCKASQSVSSSYLAWYQQKPGQAPRLLIYGAFSRANGIPDRFSGSGSGTDFTLTISRLEPEDFAVYYCQQLVSYPFTFGGGTKVEIKR
notes: also called mAb C03; antibody C03
B7: L01 (antibody, V domains shown)
VH: QVQLVQSGAEVKKPGSSVKVSCKASGGTFSSYAISWVRQAPGQGLEWMGSIIPIFGTANYAQKFQGRVTITADESTSTAYMELSSLRSEDTAVYYCARDPVGARYEVFDYWGQGTLVTVSS
VL: EIVMTQSPATLSVSPGERATLSCRASQSVSSNLAWYQQKPGQAPRLLIYSASTRATGIPARFSGSGSGTEFTLTISSLQSEDFAVYYCQQANTFPLTFGGGTKVEIK
notes: also called antibody L01
B8: L02 (antibody, V domains shown)
VH: QVQLVQSGAEVKKPGASVKVSCKASGYTFAGYNMHWVRQAPGQGLEWVGIINPNSGWTNYAQKFQGRVTMTRDTSVSAAYMELSRLRSDDTAVYYCARDPVGARYEVFDYWGQGTLVTVSS
VL: B7 VL with N32A, S52F, T56S, N92W, T93A
notes: also called mAb L02; antibody L02

Tests used:
[1] = target: T1, human ALK7-Fc comprising protein (human, UniProt Q8NER5 22-113); experiment: SPR (Biacore T100/T200); antibody captured on FAB chip, ALK7-Fc comprising protein as analyte; 1:1 model
T1 construct: also called hALK7-Fc; not shown: Fc part and any linker
T1 sequence: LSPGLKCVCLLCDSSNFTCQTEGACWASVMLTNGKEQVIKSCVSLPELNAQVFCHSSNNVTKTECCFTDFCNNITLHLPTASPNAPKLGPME

[2] = target: T2, ALK7 on differentiated 3T3-L1 adipocytes (UniProt Q8K348 26-493, limits assumed); experiment: cell-based or functional assay
T2 sequence (looked up): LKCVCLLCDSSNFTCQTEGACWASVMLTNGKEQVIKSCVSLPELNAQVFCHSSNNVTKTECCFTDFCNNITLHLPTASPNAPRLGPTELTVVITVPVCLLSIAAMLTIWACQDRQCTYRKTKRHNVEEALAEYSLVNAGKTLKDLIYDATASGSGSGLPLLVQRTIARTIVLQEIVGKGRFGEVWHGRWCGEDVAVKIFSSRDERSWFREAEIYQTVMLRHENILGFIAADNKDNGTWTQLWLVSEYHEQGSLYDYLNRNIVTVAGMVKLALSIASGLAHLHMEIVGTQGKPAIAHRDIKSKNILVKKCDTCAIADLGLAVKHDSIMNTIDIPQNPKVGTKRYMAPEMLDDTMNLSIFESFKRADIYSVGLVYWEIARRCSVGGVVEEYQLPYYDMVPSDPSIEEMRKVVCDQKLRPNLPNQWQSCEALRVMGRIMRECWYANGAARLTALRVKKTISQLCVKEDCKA

[3] = target: T3, ALK7-Fc comprising protein (Homo sapiens (Human), UniProt Q8NER5 21-113); experiment: SPR (Biacore T100/T200), 25 °C; antibody captured on FAB chip, ALK7-Fc comprising protein as analyte; 1:1 model
T3 construct: not shown: The Fc part and any linker of the fusion; The construct's exact ALK7 limits are not seen either
T3 sequence: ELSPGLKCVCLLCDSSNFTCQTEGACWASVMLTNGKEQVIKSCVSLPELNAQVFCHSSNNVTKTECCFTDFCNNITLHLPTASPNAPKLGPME
Method: (§1) Experiments were performed using a Biacore T100/T200 biosensor (Biacore/GE Healthcare) at 25 and 37° C. ALK7 antibodies were captured on custom made FAB chip. A concentration series of ALK7-Fc comprisingprotein was injected over the flow cells at a flow rate of […]. To obtain kinetic rate constants the corrected data were fit to a 1:1 interaction model using BiaEvaluation software (GE Healthcare). The equilibrium binding constant KD was determined by the ratio of binding rate constants kd/kₐ.

[4] = target: T4, rat Alk7-Fc comprising protein (rat, UniProt P70539 26-113); experiment: SPR (Biacore T100/T200); antibody captured on FAB chip, ALK7-Fc comprising protein as analyte; 1:1 model
T4 construct: not shown: Fc part and any linker
T4 sequence: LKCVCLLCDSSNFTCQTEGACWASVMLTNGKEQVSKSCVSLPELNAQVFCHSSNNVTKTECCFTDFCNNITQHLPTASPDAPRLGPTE
Method: as §1, with “comprising protein” for “comprisingprotein”, “kd/ka.” for “kd/kₐ.”

[5] = target: T1, human ALK7-Fc comprising protein; experiment: as above; remark: listed apart in the source
Method: as §1, with “comprising protein” for “comprisingprotein”, “kd/ka.” for “kd/kₐ.”

| Kd [3] [nM] | koff [3] [s⁻¹] | kon [3] [M⁻¹ s⁻¹] | other results | Binder |
| --- | --- | --- | --- | --- |
| – | – | – | Kd [1]: 247 nM; koff [1]: 0.0222 s⁻¹; kon [1]: 89600 M⁻¹ s⁻¹; Increase in lipolysis activity (%) [2]: 45.8% | B1 |
| 0.87 | 2.59e-05 | 29900 | – | B2 |
| – | – | – | Kd [4]: 8.14 nM; koff [4]: 0.000139 s⁻¹; kon [4]: 17100 M⁻¹ s⁻¹; Kd [5]: 201 nM; koff [5]: 0.00916 s⁻¹; kon [5]: 45600 M⁻¹ s⁻¹ | B3 |
| 12.4 | 0.000291 | 23500 | – | B4 |
| 5.33 | 0.000126 | 23600 | – | B5 |
| 0.33 | 1.27e-05 | 38300 | – | B6 |
| – | – | – | Kd [4]: 22.9 nM; koff [4]: 0.000271 s⁻¹; kon [4]: 11800 M⁻¹ s⁻¹; Kd [5]: 15.1 nM; kon [5]: 24300 M⁻¹ s⁻¹ | B7 |
| 0.44 | 1.21e-05 | 27400 | – | B8 |
